A word on the Kd: it is the concentration at which binding is half-saturated.

The target in the test is T1, odorranalectin (Odorrana grahami).
T1 chain: YASPKCFRYPNGVLACT
As to the kind of experiment: SPR; glycans on fetuin (lectin-type recognition of a glycoprotein); calcium not required.

B1: fetuin (protein)
chain: IPLDPVAGYKEPACDDPDTEQAALAAVDYINKHLPRGYKHTLNQIDSVKVWPRRPTGEVYDIEIDTLETTCHVLDPTPLANCSVRQQTQHAVEGDCDIHVLKQDGQFSVLFTKCDSSPDSAEDVRKLCPDCPLLAPLNDSRVVHAVEVALATFNAESNGSYLQLVEISRAQFVPLPVSVSVEFAVAATDCIAKEVVDPTKCNLLAEKQYGFCKGSVIQKALGGEDVRVTCTLFQTQPVIPQPQPDGAEAEAPSAVPDAAGPTPSAAGPPVASVVVGPSVVAVPLPLHRAHYDLRHTFSGVASVESSSGEAFHVGKTPIVGQPSIPGGPVRLCPGRIRYFKI
Consider B1, for which the Kd came to 211 nM.

The values are drawn from article PMC2440032 (2008).
